Experimental data from publication PMC4605657, “Interaction between TATA-Binding Protein (TBP) and Multiprotein Bridging Factor-1 (MBF1) from the Filamentous Insect Pathogenic Fungus Beauveria bassiana”.

B1: TATAC (dsDNA)
DNA 1: CAGTAAAAGCTTGGTAGTATTTATATCTTCTCTCTTTCAC
DNA 2: GTGAAAGAGAGAAGATATAAATACTACCAAGCTTTTACTG
B2: TATAP (dsDNA)
DNA 1: GGAGCGGCATATGTCAAGTATAAAGAGCGGAATGTTTTTC
DNA 2: GAAAAACATTCCGCTCTTTATACTTGACATATGCCGCTCC
B3: TATA0 (dsDNA)
DNA 1: CAGTAAAAGCTTGGTAGTATTTCTTCTCTCTTTCAC
DNA 2: GTGAAAGAGAGAAGAAATACTACCAAGCTTTTACTG

biological target: BbMBF1 (multiprotein bridging factor 1) (Beauveria bassiana, UniProt J4WFU2 1-153); test: EMSA; Binding buffer (4 ul in 20 ul reaction): 60 mM KCl, 20 mM Tris pH 7.9, 5 mM MgCl2, 10 mM DTT, 0.2 mg/ml BSA, 10% glycerol; 30 min at 37 C; 6% non-denaturing PAGE; settings: protein: recombinant; tags: 6xHis (C-terminal; pET28a, thrombin site); blunt

Row | Binder | binding result
1 | B1 | no binding
2 | B2 | no binding
3 | B3 | no binding
